Experimental data taken from US20060223059A1.
Like-named read-outs stand apart in the source and are kept apart here.

Legend:
Boc-V-P-R-AMC [1] = test system: T1, Boc-V-P-R-AMC
T1 sequence: VPR

Boc-A-A-P-F-AMC [2] = test system: T2, Boc-A-A-P-F-AMC
T2 sequence: AAPF

Boc-V-P-R-AMC [3] = biological target: T3, Boc-V-P-R-AMC
T3 chain: VPR

Boc-A-A-P-F-AMC [4] = biological target: T4, Boc-A-A-P-F-AMC
T4 chain: AAPF

trypsin
hydrolysis of the fluorogenic peptide (release of AMC, arbitrary fluorescence counts) (Boc-V-P-R-AMC [1]): Fluorescence counts increased, in a dose-dependent manner, with increased concentrations of each enzyme
kinetic analysis, fluorescence counts at 30 sec intervals for 15 min (Boc-V-P-R-AMC [1]): kallikrein 14- and trypsin-mediated hydrolysis of V-P-R-AMC increases over time

chymotrypsin
hydrolysis of the fluorogenic peptide (release of AMC, arbitrary fluorescence counts) (Boc-A-A-P-F-AMC [2]): Chymotrypsin, as expected, effectively cleaved the peptide substrate in a dose-dependent fashion
kinetic analysis, fluorescence counts at 30 sec intervals for 15 min (Boc-A-A-P-F-AMC [2]): Chymotrypsin activity increases with increasing concentrations and over time

B1: recombinant hK14^myc-His (protein)
chain: EAEFIIGGHTCTRSSQPWQAALLAGPRRRFLCGGALLSGQWVITAAHCGRPILQVALGKHNLRRWEATQQVLRVVRQVTHPNYNSRTHDNDLMLLQLQQPARIGRAVRPIEVTQACASPGTSCRVSGWGTISSPIARYPASLQCVNINISPDEVCQKAYPRTITPGMVCAGVPQGGKDSCQGDSGGPLVCRGQLQGLVSWGMERCALPGYPGVYTNLCKYRSWIEETMRDK
hydrolysis of the fluorogenic peptide (release of AMC, arbitrary fluorescence counts) (Boc-V-P-R-AMC [3]): kallikrein 14^myc-His was not able to hydrolyze V-P-R-AMC to a significant extent and is not considered to be active
hydrolysis of the fluorogenic peptide (release of AMC, arbitrary fluorescence counts) (Boc-A-A-P-F-AMC [4]): neither recombinant kallikrein 14 nor kallikrein 14^myc-His hydrolyzed the peptide at any of the concentrations used

B2: recombinant kallikrein 14 (without c-myc/His epitopes) (protein)
chain: IIGGHTCTRSSQPWQAALLAGPRRRFLCGGALLSGQWVITAAHCGRPILQVALGKHNLRRWEATQQVLRVVRQVTHPNYNSRTHDNDLMLLQLQQPARIGRAVRPIEVTQACASPGTSCRVSGWGTISSPIARYPASLQCVNINISPDEVCQKAYPRTITPGMVCAGVPQGGKDSCQGDSGGPLVCRGQLQGLVSWGMERCALPGYPGVYTNLCKYRSWIEETMRDK
hydrolysis of the fluorogenic peptide (release of AMC, arbitrary fluorescence counts) (Boc-V-P-R-AMC [3]): recombinant kallikrein 14 is able to effectively cleave the trypsin substrate, V-P-R-AMC (SEQ ID NO. 30) at a similar efficiency as trypsin, the positive control
kinetic analysis, fluorescence counts at 30 sec intervals for 15 min (Boc-V-P-R-AMC [3]): kallikrein 14- and trypsin-mediated hydrolysis of V-P-R-AMC increases over time
hydrolysis of the fluorogenic peptide (release of AMC, arbitrary fluorescence counts) (Boc-A-A-P-F-AMC [4]): neither recombinant kallikrein 14 nor kallikrein 14^myc-His hydrolyzed the peptide at any of the concentrations used
kinetic analysis, fluorescence counts at 30 sec intervals for 15 min (Boc-A-A-P-F-AMC [4]): kallikrein 14 produces only background fluorescence counts (identical to the negative control containing substrate only) at all concentrations throughout the experiment
